The values that follow come from US20200368361A1.

In experiment [1] the target is full length monkey MSR1 on HEK293.mfMSR1 cells (Macaca fascicularis). Kind of experiment: ECL cell binding, HEK293.mfMSR1.
In experiment [2] the target is full length human MSR1 with a C-terminal Myc tag on HEK293.Myc.hMSR1 cells (human) (UniProt P21757). Briefly: ECL cell binding, HEK293.Myc.hMSR1.
Experiment [3] addresses endogenously expressed human MSR1 on PMA-treated THP-1 cells (human) (UniProt P21757). Briefly: ECL cell binding, PMA-treated THP-1.
For experiment [4], the target named is His9-hMSR1, human MSR1 extracellular domain with an N-terminal 9-Histidine tag (human) (UniProt P21757). Briefly: competition ELISA on coated His9-hMSR1; competitor Ac-LDL; antibody 100 nM. (An ELISA detects its analyte on a solid surface through an enzyme-linked reagent.)
Experiment [5] has the same target. Kind of experiment: competition ELISA on coated His9-hMSR1; competitor Ox-LDL 10 nM; antibody 1 µM.
The target is the same in experiment [6]. Briefly: competition ELISA on coated His9-hMSR1; competitor biot-AGE-BSA; antibody 300 nM.
Experiment [7] concerns the target human MSR1 endogenously expressed on PMA-differentiated THP-1 cells (human) (UniProt P21757). Briefly: cell-based or functional assay.
Experiment [8] has the same target. Briefly: imaging of PMA-differentiated THP-1 cells, 10 ug/mL antibody, Alexa 488 secondary.

Sequence of human MSR1 endogenously expressed on PMA-differentiated THP-1 cells (human) (P21757 whole entry): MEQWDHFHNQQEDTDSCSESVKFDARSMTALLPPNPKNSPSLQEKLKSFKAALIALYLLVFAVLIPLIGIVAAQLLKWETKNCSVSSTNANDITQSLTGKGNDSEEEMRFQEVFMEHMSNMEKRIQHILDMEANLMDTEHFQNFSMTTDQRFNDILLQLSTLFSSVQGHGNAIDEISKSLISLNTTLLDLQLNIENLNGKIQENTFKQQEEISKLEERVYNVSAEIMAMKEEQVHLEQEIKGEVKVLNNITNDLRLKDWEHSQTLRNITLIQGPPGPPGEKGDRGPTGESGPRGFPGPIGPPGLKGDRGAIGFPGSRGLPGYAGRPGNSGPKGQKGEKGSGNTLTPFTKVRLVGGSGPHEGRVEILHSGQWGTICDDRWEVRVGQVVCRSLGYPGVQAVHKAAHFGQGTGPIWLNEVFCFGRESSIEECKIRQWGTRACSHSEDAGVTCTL
Sequence of His9-hMSR1, human MSR1 extracellular domain with an N-terminal 9-Histidine tag (human) (P21757 other isoform, or with tags, fused parts or gaps): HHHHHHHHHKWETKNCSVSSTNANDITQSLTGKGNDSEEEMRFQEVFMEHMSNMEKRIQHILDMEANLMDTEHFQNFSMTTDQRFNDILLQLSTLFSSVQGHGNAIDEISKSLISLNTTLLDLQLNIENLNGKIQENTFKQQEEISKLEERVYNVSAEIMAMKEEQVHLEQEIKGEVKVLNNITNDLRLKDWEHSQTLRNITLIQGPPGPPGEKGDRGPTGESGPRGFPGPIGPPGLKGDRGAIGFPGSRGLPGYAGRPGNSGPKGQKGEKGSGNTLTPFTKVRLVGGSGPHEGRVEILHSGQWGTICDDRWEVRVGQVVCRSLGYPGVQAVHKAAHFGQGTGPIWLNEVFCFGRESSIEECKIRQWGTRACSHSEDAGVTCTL
Sequence of full length monkey MSR1 on HEK293.mfMSR1 cells (Macaca fascicularis) (chain, as listed by the source): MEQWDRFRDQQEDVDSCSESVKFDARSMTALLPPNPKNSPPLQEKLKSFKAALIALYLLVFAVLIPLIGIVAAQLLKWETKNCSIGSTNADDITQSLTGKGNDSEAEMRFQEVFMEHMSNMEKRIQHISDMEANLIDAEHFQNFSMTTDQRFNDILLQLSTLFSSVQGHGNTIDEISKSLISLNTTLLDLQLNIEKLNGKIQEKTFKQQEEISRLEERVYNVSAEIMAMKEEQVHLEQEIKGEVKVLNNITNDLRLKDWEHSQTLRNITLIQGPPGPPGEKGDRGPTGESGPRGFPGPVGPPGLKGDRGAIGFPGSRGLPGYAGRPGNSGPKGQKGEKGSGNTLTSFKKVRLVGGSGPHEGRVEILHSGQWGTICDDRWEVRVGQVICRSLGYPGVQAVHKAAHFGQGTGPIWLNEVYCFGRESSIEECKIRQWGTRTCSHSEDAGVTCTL
Sequence of endogenously expressed human MSR1 on PMA-treated THP-1 cells (human) (P21757 whole entry, the tested form may be a part): as the sequence (P21757 whole entry) above
Sequence of full length human MSR1 with a C-terminal Myc tag on HEK293.Myc.hMSR1 cells (human) (P21757 whole entry): as above

Take mIgG Isotype Control (antibody): the binding signal ratio to isotype control (11 nM) in experiment [1], in experiment [2] and in experiment [3] was 1 fold throughout.

Take “mIgG1 isotype control (competition ELISA of Table 20) (antibody)”: the % Blocking is -4% in experiment [4], 16% in experiment [5] and 7% in experiment [6].

Turning to hIgG1 Isotype Control (antibody), the binding signal ratio to isotype control (11 nM) in experiment [1], in experiment [2] and in experiment [3] was 1 fold each time.

On to “hIgG1 isotype control (competition ELISA of Table 20) (antibody)”, for which the % Blocking in experiment [4] is -8%; in experiment [5], 3%; in experiment [6], 4%.

In turn, “Isotype control (internalization assay of Table 19) (antibody)” came in with a Total Internalized RFU in experiment [7] of 1.7e+06 RFU. In experiment [8], this substance returned a Total Binding at 4° C. of 186000 RFU and a Total Binding at 37° C. of 1.09e+06 RFU.
